Measurements reported in IntAct's records for PubMed 12128212.

B1: Protein daughter of sevenless (Drosophila melanogaster (Fruit fly)), Q9VZZ9 (parent)
chain: MDRTFYEGWLIKSPPTKRIWRARWRRRYFTLKQGEIPEQFCLEYYTDHNCRKLKGVIDLDQCEQVDCGLRLENRKQKFQYMFDIKTPKRTYYLAAETEADMRDWVNCICQVCHLHDTKQSNELPLGAVGADENRTQHTSSSGGLSNSTQNTTTTSLHSSAGTTAPQASVPNAGGSAQLRRPAVIEEQPMPSNAGNNNSDSVYVNTEYSNRETMLCDANFDQQELLSAAQQQPPPSPATALYLNHSALIQAQAAAAAAEQLQQQQQQAARLAVSANGVVRKLPEHLVLTQQTLAEAAAQQHSSVQASPALSTASGPYIPISECFSGSPRFLPGVPLPGADLAIPNNPTTPLNNLDPKFYDTPRSHNNIGLNLTNDQSYSPKITNLSLQQLANNNASKQRSDSDSESVFTDDDEWAHPLPLRENVDRSTRPSDSSIENESFVLTYSQRFSKMPEEGGAIVPPAEKSSKLAGAASLPEAGDQGTLDKLAKVLKNKNNLILDFKENEKIPRDLPQLSDTENTSPAIVARRNAHSAFIEESYDIPRSHQQPYYNVNQLLGERPVTSPHNSNPIAASTPNLMAADLGAVAAISAAANPGLMGEAQAVASSPTSARTLPRHCYTNAAPTKMEGNVFRYDFMEQADCPPVNRKLKPKVAGGLPVVEDKPPEEFPAKPPVGVDQLTNKLGAAQLQQPIGPPSVDRKCKPNAYKLGNSATMSPATRRSSGAPLSMVLPHETDVHSPAAANAFFHETRTLPRQQHRHHPNSPGSMSVQHQRTASAAAAMMSLTAAAAPKQQAAAQTEHKLQYFDLDVTNKPPLLNRSSMSVGNLYSQGGNGASGMRFAGVEAGGARAPVPSSVVYRSVDFVKTEAFKRIREERESSGNK

Variants of: B1
Conditions: with grap_drome drk

effect of a mutation on the interaction | Variant
decreasing interaction strength | R696K
disrupting interaction strength | R644K;R696K
decreasing interaction strength | R644K

Variants of: B1
Conditions: with grap_drome drk
Remark: another data set of the same source

effect of a mutation on the interaction | Variant
disrupting interaction strength | R644K;R696K
